From the RNAGym collection of RNA variant scans (doi:10.1073/pnas.2313332121)

B1: TPR t1 (parent)
chain: GACCAAUCUGCCCUCAGAGCUCGAGAACAUCUUCGGAUGCAGAGGAGGCAGGCUUCGGUGGCGCGAUAGCGCCAACGUCCUCAACCUCCAAUGCAUCCCACCACAUGAUGAUGCCUGAAGAGCCUUGGUUUUUUG

Variants of: B1
Experiment: polymerase ribozyme fitness, log enrichment relative to wild type (log ratio); higher = more active; in vitro selection for triplet polymerase activity
Procedure, shortened: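 Each subunit of a heterodimeric triplet polymerase ribozyme was represented by a PCR-built, transcribed mutant library that underwent triplicate single-round in vitro selection with frozen incubation at −7 °C. Extended constructs were recovered by gel excision, streptavidin-bead capture and RT-PCR, and Illumina sequencing of input and output libraries kept genotypes with ≥10 input reads and ≥1 read per output. Fitness is the logarithm of genotype enrichment relative to wild-type enrichment, from inverse-variance-weighted replicate averages, with a logarithm base of 2.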

| Variant | polymerase ribozyme fitness (log ratio) |
| --- | --- |
| GACCAAUCUGCCCUCAGAGCUCGAGAACAUCUUCGGAUGCAAAGUAGGCAGGCUUCGGUGGCGCGAUAGCGCCAACGUCCUUAACCUCUUAUGCAUCCCACCACAUGAUGAUGCCUGGAGAGCCUUGGUUUUUUG [G42A G45U C82U C89U A90U A118G] | -1.67 |
| GACCAAUCUGCCCUCAGAGCUCGAGAACAUCUUCGGAUGCAAAGGUGACAGGCUUCGGUGGCACGAUAGCGCCAACGUCCUCAACCUCCAAUGCAUCCCACCACAUGAUGAUGCCUGUAGAGCCUUGGUUUUUUG [G42A A46U G48A G63A A118U] | -3.82 |
| GACCAAUCUGCCCUCAGAGCUCGAGAACAUCUUCGGAUGCUGAGGAGGCAGGCUUCGGUGGCGCGAUAGCGCCAACGCCCUCAACCUCCAAUGCAUCCCACCACAUGAUGAUGCCUGAAGGGCCUUGGUUGUUUG [A41U U78C A121G U131G] | -0.28 |
| GACCAAUCUGCCCUCAGAGCUCGAGAACAUCUUCGGAUGCAAAGGAGGCAGGCUUCGGUGGCGUGAUAGCGCCAACGUCCUCAACCUCCAAUGCAUCCCACCACAUGAUGAUGCAUGAUGAGCCUUGGUUUUUUG [G42A C64U C115A A119U] | -3.76 |
| GACCAAUCUGCCCUCAGAGCUCGAGAACAUCUUCGGAUGCAAAUGAGGCAGGCUUCGGUGGCGCGAUAGUGCCAAUGUCCUCAACCUCCAAUGCAUCCCACCACAUGAUGAUGCCUGAAGAGCCUUGGUUUUUUG [G42A G44U C70U C76U] | -4.28 |
| GACCAAUCUGCCCUCAGAGCUCGAGAACAUCUUCGGAUGCUGAGGAGGCAGGCUUCGGUGGCGCGAUAGCGCCAACGUCCUCAACCUCCAAUGCAUCCCACCACAUGAUUAUGCCUGAAGAGCCAUGGUUUUUUG [A41U G110U U125A] | -4.14 |
| GACCAAUCUGCCCUCAGAGCUCGAGAACAUCUUCGGAUGCAAAGUAGGCAGGCUUCGGUGGCGCGAUGGCGCCAACGUCCUUAACCUCUUAUGCAUCCCACCACAUGAUGAUGCCUGGAGAGCCUUGGUUUUUUG [G42A G45U A68G C82U C89U A90U A118G] | -4.62 |
| GACCAAUCUGCCCUCAGAGCUCGAGAACAUCUUCGGAUGCAAAGGAGGCAGGUUUCGGUGGCUCGAUAGCGCCAACGUCCUCAACCUCCAAUGCAUCCCACCACAUGAUGAUGCCUGAAGAGCCUUGGUUUUUUG [G42A C53U G63U] | -3.99 |
| GACCAAUCUGCCCUCAGAGCUCGAGAACAUCUUCGGAUGCAAAGGAGGCAGGCUUCGGUGGCGCGAUAGCGCCAACGUCCUCUACCUCCAAUGCAUCCCACCACAUGAUGAUGCCUGAAGAGCCUUGGUUUUUUG [G42A A83U] | -2.65 |
| GACCAAUCUGCCCUCAGAGCUCGAGAACAUCUUCGGAUGCAAAGGAGGCAGGCUUCGGUGGCGCGAUAGCGCCAACGUCCUCAACCUCCACUGCAUCCCACCACAUGAUGAUGCCUGAAGAGUCUUGGUUAUUUG [G42A A91C C123U U131A] | -1.71 |
| GACCAAUCUGCCCUCAGAGCUCGAGAACAUCUUCGGAUGCAAAGGAGGCAGGCUUCGGUGGCGCGAUAGCGCCAACGUCCUUAACCUCCAAUGCAUCCCACCACAUGAUGAUGCCUGAAGAGCCUUGGUUUUUUG [G42A C82U] | -1.95 |
| GACCAAUCUGCCCUCAGAGCUCGAGAACAUCUUCGGAUGCUGAGGAGGCAGGCUGCGGUGGCGCGAUAGCGCCAACGUCCUCAACCUCCAUUGCAUCCCAGCACAUGAUGAUGCCUGAAGAGCCUUGGUUUUUUG [A41U U55G A91U C101G] | -4.09 |
| GACCAAUCUGCCCUCAGAGCUCGAGAACAUCUUCGGAUGCAAUGGAGGCAGACUUCGGUGGCGCGAUAGCGCUAACGUCCUCAACCUCCAAUGCAUCCCACCACAUGAUGAUGCCUGAAGAGCCUUGGUUUUCUG [G42A A43U G52A C73U U133C] | -1.65 |
| GACCAAUCUGCCCUCAGAGCUCGAGAACAUCUUCGGAUGCUGAGGAGGCAGGCUUCGGUGGCGCGAUAGCCCCAACGUCCUCAACCUCCAAUGCAUCCCACCACAUGAUGAUGCCUGAAGAGCCUUGGUUUUUUG [A41U G71C] | -3.84 |
| GACCAAUCUGCCCUCAGAGCUCGAGAACAUCUUCGGAUGCAAAGGAGCCAGGCUUGGGUGGCGCGAUAGCGCCAACGUCCUCAACUUCCAAUGCAUCCCAGCACAUGAUGAUGCCUGAAGAGCCUUGGUUUUUUG [G42A G48C C56G C86U C101G] | -4.3 |
| GACCAAUCUGCCCUCAGAGCUCGAGAACAUCUUCGGAUGCAAAGGAGGCAGGCUUCGGUGGCGCGUUAGCGCCAACGUUCUCAACCUCCAAUGCAUCCCACCACAUGAUGAUGCCUGAAGAGCCUUGGUUUUUUG [G42A A66U C79U] | -3.79 |
| GACCAAUCUGCCCUCAGAGCUCGAGAACAUCUUCGGAUGCAAAGGAGGCAGGCUUCGGUGGCGCGAUAGCGGCAACGUCCUCAACCUCGAAUGCAUCCCACCACAUGAUGAUGCCUGAAGAGCCUUGGUUUUUUG [G42A C72G C89G] | -3.84 |
| GACCAAUCUGCCCUCAGAGCUCGAGAACAUCUUCGGAUGCAAAGGAGGCAGGCUUCGGUGGCGCGAUAGCGCCAACGUCCUCAACCUCCAAUGCAUCCCACCACAUGGUGAUGCCUGAAGGGCCUUGGUUUUUUG [G42A A108G A121G] | -2.74 |
| GACCAAUCUGCCCUCAGAGCUCGAGAACAUCUUCGGAUGCAAAGGAGGCAGGCUUCGGUGGCGCGAUAGCGCCAACGUCCUCAACCUCCAAUGCAUCCCACCACAUGAUGGUCCCUGAAGCGCCUUGGUUUUUUG [G42A A111G G113C A121C] | -0.948 |
| GACCAAUCUGCCCUCAGAGCUCGAGAACAUCUUCGGAUGCAAAGGAGGCUGGCUUCGGUGGCGCGAUAGCGCCAACGUCCUCAACCUCCAAUGCAUCCCAUCACAUGAUGAUGCCUGAAGAGCCUUGGUUUUUUG [G42A A50U C101U] | -4.32 |
| GACCAAUCUGCCCUCAGAGCUCGAGAACAUCUUCGGAUGCAAAGGAGGCAGGCUUCGGUGGCGCGAUAGCGCCAACGUGCUCAACCUCCAAUGCAUCCCACCACAUGAUGAUACCUGAAGAGCCUUGGUUUUUUG [G42A C79G G113A] | -4.19 |
